Results taken from US20110086770A1 (ANAPHORE, published 2011).
Residue numbers refer to the chain shown, from its start.

B1: 101-51-1A3 ATRIMER (designed binder)
chain: EPPTQKPKKIVNAKKDVVNTKMFEELKSRLDTLAQEVALLKEQQALQTVCLKGTKVHMKCFLAFTQTKTFHEASEDCISRGGTLSTPQTGSENDALYEYLRQSVGNEAEIWLGLNGSALTNTWVDMTGARIAYKNWEHQPVYQPGGGWGVFGENCAVLSGAANGKWFDKRCRDQLPYICQFGIV
modifications: ATRIMER is a homotrimer; one protomer is given.
notes: not shown: C-terminal purification tag: Myc/His6 (pANA4) or HA-StrepII (pANA10)
B2: 101-54-4B6 ATRIMER (designed binder)
chain: B1 chain with H138P, Q139P, P140G, V141P, Y142H, Q143H, G145M, W148F
B3: 105-08-1C3 ATRIMER (designed binder)
chain: B1 chain with A118Q, N121D, H138T, Q139E, P140I, V141T, Y142A, G145D, V150Y
B4: 105-08-1A7 ATRIMER (designed binder)
chain: B1 chain with A118V, L119R, H138T, Q139E, P140I, V141T, Y142A, G145D, W148F, V150Y
modifications: Homotrimer of the given chain (ATRIMER complex).
B5: 101-51-1A8 ATRIMER (designed binder)
chain: B1 chain with H138R, Q139T, V141P, Y142W, G145E, W148F, V150Y
modifications: ATRIMER is a homotrimer; one protomer is given.
notes: as for B1
B6: 101-54-4B3 ATRIMER (designed binder)
chain: B1 chain with H138L, Q139P, V141P, Y142G, Q143H, G145Q, W148F
B7: 101-51-1A10 ATRIMER (designed binder)
chain: B1 chain with Q139P, P140L, V141P, Y142P, G145S, W148F, V150Y
modifications: ATRIMER is a homotrimer; one protomer is given.
notes: as for B1
B8: 105-08-1C4 ATRIMER (designed binder)
chain: B1 chain with A118T, N121D, H138T, Q139E, P140I, V141T, Y142A, G145D, V150Y
modifications: Homotrimer of the given chain (ATRIMER complex).
B9: 105-08-1A10 ATRIMER (designed binder)
chain: B1 chain with A118S, L119I, N121D, H138T, Q139E, P140I, V141T, Y142A, G145D, V150Y
modifications: Forms a homotrimer (ATRIMER) through the tetranectin coiled coil; one protomer is given.
notes: not shown: C-terminal tag
B10: 105-08-1B7 ATRIMER (designed binder)
chain: EPPTQKPKKIVNAKKDVVNTKMFEELKSRLDTLAQEVALLKEQQALQTVCLKGTKVHMKCFLAFTQTKTFHEASEDCISRGGTLSTPQTGSENDALYEYLRQSVGNEAEIWLGLNGSPRTDTWVDMTGARIAYKNWETEITAQPDGGFGYFGENCAVLSGAANGKWFDKRCRDQLPYICQFGIV
modifications: Forms a homotrimer (ATRIMER) through the tetranectin coiled coil; one protomer is given.
notes: not shown: C-terminal tag
B11: 105-08-1A4 ATRIMER (designed binder)
chain: B10 chain with P118A, R119V, D121N
B12: 105-08-1B10 ATRIMER (designed binder)
chain: B10 chain with P118R, R119H
B13: 105-08-1C2 ATRIMER (designed binder)
chain: B10 chain with P118R, R119A
modifications: Forms a homotrimer (ATRIMER) through the tetranectin coiled coil; one protomer is given.
notes: not shown: C-terminal tag
B14: 101-51-1A6 ATRIMER (designed binder)
chain: B1 chain with H138N, Q139N, P140L, V141S, Y142A, G145R, W148F, V150Y
modifications: ATRIMER is a homotrimer; one protomer is given.
notes: as for B1
B15: 105-08-1C6 ATRIMER (designed binder)
chain: B10 chain with P118A, R119L
B16: 105-08-1A8 ATRIMER (designed binder)
chain: B10 chain with D121N, Y150V
notes: not shown: C-terminal tag: Myc/His6 (pANA4) or HA-StrepII (pANA10); A Ser left at the ompA junction may also sit at the N-terminus
B17: 105-08-1B1 ATRIMER (designed binder)
chain: B10 chain with D121Q
modifications: Homotrimer of the given chain (ATRIMER complex).
B18: 101-80-5E8 ATRIMER (designed binder)
chain: B1 chain with H138P, Q139P, P140E, V141P, Y142L, Q143H, G145M, W148F
B19: 101-54-4A12 ATRIMER (designed binder)
chain: EPPTQKPKKIVNAKKDVVNTKMFEELKSRLDTLAQEVALLKEQQALQTVCLKGTKVHMKCFLAFTQTKTFHEASEDCISRGGTLSTPQTGSENDALYEYLRQSVGNEAEIWLGLNGSRRSGVWVDMTGARIAYKNWEPPGPAHPQGGFGVFGENCAVLSGAANGKWFDKRCRDQLPYICQFGIV

Biological target: T1, recombinant human IL-23R/Fc chimera (R&D Systems) (human, UniProt Q5VWK5 24-353)
T1 construct: bought; also called human IL-23R/Fc fusion protein; rhIL23RFc
T1 sequence (looked up): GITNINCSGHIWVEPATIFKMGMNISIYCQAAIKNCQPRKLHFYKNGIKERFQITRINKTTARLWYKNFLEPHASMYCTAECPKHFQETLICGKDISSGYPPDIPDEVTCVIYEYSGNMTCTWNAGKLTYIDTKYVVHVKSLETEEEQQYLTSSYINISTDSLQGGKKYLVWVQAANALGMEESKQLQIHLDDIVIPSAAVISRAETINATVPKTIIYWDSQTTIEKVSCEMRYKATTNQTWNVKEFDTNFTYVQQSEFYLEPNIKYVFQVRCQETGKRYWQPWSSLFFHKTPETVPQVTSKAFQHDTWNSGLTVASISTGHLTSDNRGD
Assay: competition ELISA against IL-23
Procedure: Assays were performed generally as follows. Individual wells in Immulon HB2 plates were incubated overnight at 4° C. with 100 μL PBS containing 100 ng of an anti-human IgG Fc (R&D MAB 110 clone 97924). Plates were washed five times with PBS/0.05% Tween 20, and wells were incubated for 1.5 h at RT with 100 μL each of PBS containing 50 ng of recombinant human IL-23R/Fc. […] Competitor was included at a final concentration of 1 μg/mL. After incubation, plates were washed as described and wells were incubated for 40 min at RT with 100 μL each of PBS containing a 1:5000 dilution of streptavidin-HRP conjugate (Pierce catalog no. 21130). After washing, wells were incubated with 100 μL each of TMB (BioFX Lab catalog no. TMBH-1000-0) for up to 30 min at RT. Reactions were stopped with an equal volume of 0.2 M sulfuric acid.

| Binder | Ratio IC50 to 056-53.H4E IC50 |
| --- | --- |
| B1 | 1.6 ratio |
| B2 | 0.3 ratio |
| B3 | 3.6 ratio |
| B4 | 2.9 ratio |
| B5 | 3.7 ratio |
| B6 | 1 ratio |
| B7 | 8.7 ratio |
| B8 | 3.3 ratio |
| B9 | 4.3 ratio |
| B10 | 4.1 ratio |
| B11 | 1.6 ratio |
| B12 | 4.7 ratio |
| B13 | 4.1 ratio |
| B14 | 2.6 ratio |
| B15 | 2 ratio |
| B16 | 1.6 ratio |
| B17 | 3.3 ratio |
| B18 | 0.6 ratio |
| B19 | 1.1 ratio |
